{
  "source": "patent US20200276237A1",
  "about": "(MIE UNIVERSITY, published 2020)",
  "key": {"[1]": {"molecular_target": "T1, HLA-A2-MAGE-A4 p230 monomer (human)", "T1 construct": "Biotinylated soluble monomer, captured on neutravidin plates (ELISA) or on the Biacore sensor chip CAP; also called HLA-A2-MAGE-A4 monomer; MAGE-A4-derived peptide/HLA-A2 complex", "experiment": "SPR, BiacoreX100, HLA-A2-MAGE-A4 p230 on sensor chip CAP, purified scFv 12.5-200 nM, single cycle", "experimental": "Determination of KD value by Biacore was determined by measuring the dynamic changes in detection sensitivity (resonance, reflecting the change in mass on the chip) over time. The dissociation rate constant (Kd) and the binding rate constant (Ka) were determined by dynamic change curve, the binding constant was determined from the ratio of the two constants."}, "[2]": {"molecular_target": "T2, HLA-A2/MAGE-C2 risk peptide on T2 cells (human)", "T2 construct": "whole, on cells", "experiment": "FACS on T2 cells pulsed with risk peptide"}, "[3]": {"molecular_target": "T3, HLA-A2/MAGE-A10 risk peptide on T2 cells (human)", "T3 construct": "whole, on cells", "experiment": "FACS on T2 cells pulsed with risk peptide"}, "[4]": {"molecular_target": "T4, HLA-A2/MAGE-A11 risk peptide on T2 cells (human)", "T4 construct": "whole, on cells", "experiment": "FACS on T2 cells pulsed with risk peptide"}, "[5]": {"molecular_target": "T5, HLA-A2/MAGE-B2 risk peptide on T2 cells (human)", "T5 construct": "whole, on cells", "experiment": "FACS on T2 cells pulsed with risk peptide"}, "[6]": {"molecular_target": "T6, HLA-A2/MAGE-A8 risk peptide on T2 cells (human)", "T6 construct": "whole, on cells", "experiment": "FACS on T2 cells pulsed with risk peptide"}, "[7]": {"molecular_target": "T7, HLA-A2/MAGE-B10 risk peptide on T2 cells (human)", "T7 construct": "whole, on cells", "experiment": "FACS on T2 cells pulsed with risk peptide"}, "[8]": {"molecular_target": "T8, HLA-A2/RBBP5 risk peptide on T2 cells (human)", "T8 construct": "whole, on cells; Theoretical MHC IC50 is high (5880.0 nM)", "experiment": "FACS on T2 cells pulsed with risk peptide"}},
  "data": [
    {"binder": "MAGE #17 scFv-FLAG/His (scFv, Purified scFv-FLAG/His form, used for Biacore and for FACS on T2 cells (detection with anti-FLAG); also called clone #17; anti-MAGE #17; not shown: FLAG tag and His tag from the His/FLAG expression vector) scFv: QVQLVQSGAEVKKPGSSVKVSCKASGGTFSSYAISWVRQAPGQGLEWMGGIIPIFGTANYAQKFQGRVTITADKSTSTAYMELSSLRSEDTAVYYCARSPRRAYHDAFDIWGQGTMVTVSSGGGGSGGGGSGGGGSSYELTQPPSMSVAPGKTASITCGGDHIGSKSVHWYQQKPGQAPVLVVYDDSDRPSGIPERFSGSNSGNTATLTISGTQAMDEADYYCLAWDSSTAIFGGGTKLTVL", "values": [
      {"measurement": "Kd", "setting": "[1]", "value": 22, "unit": "nM"},
      {"measurement": "binding result", "setting": "[2]", "value": "no binding"},
      {"measurement": "binding result", "setting": "[3]", "value": "no binding"},
      {"measurement": "binding result", "setting": "[4]", "value": "no binding"},
      {"measurement": "binding result", "setting": "[5]", "value": "no binding"},
      {"measurement": "binding result", "setting": "[6]", "value": "no binding"},
      {"measurement": "binding result", "setting": "[7]", "value": "no binding"},
      {"measurement": "binding result", "setting": "[8]", "value": "no binding"}
    ]}
  ]
}
